The record followed here is PMC4894967.

In this test the target is ATM/Tel1 kinase from Schizosaccharomyces pombe (S. pombe) (UniProt O74630). Description: cryo-EM structure; single-particle cryo-EM of purified ATM/Tel1, 20-50 ug/ml in 20 mM HEPES pH 8.0, 40 mM KOAc, 5 mM MgCl2, 0.1% trehalose, 2 mM DTT, 0.01% NP-40; 8.7 Å; initial model from negative-stain RCT.

Take “ATM/Tel1 kinase from Schizosaccharomyces pombe, O74630 1-2812”: the stoichiometry N is 2.

In general, stoichiometry N refers to the number of molecules, sites or subunits per partner or assembly.
